Source: article PMC11604724 (MedComm, 2024)

Key:
[1] = molecular target: PNGase F‐treated NTD protein (SARS-CoV-2 WT, UniProt P0DTC2, N-linked glycans removed with PNGase F (nearly complete deglycosylation)); assay: ELISA; conditions: both partners purified
[2] = molecular target: Horseradish peroxidase (HRP)‐labeled NTD protein (SARS-CoV-2, WT assumed, UniProt P0DTC2, horseradish peroxidase (HRP) label); assay: ELISA; conditions: both partners purified
[3] = molecular target: SARS‐CoV‐2 N‐terminal domain (NTD) protein (SARS-CoV-2 WT, UniProt P0DTC2, N-linked glycans (complex glycosylation, migrates at 40-70 kDa)); assay: ELISA; conditions: both partners purified
[4] = molecular target: SARS‐CoV‐2 (WT) spike expressed on HEK293T cells (SARS-CoV-2, UniProt P0DTC2); assay: flow cytometry on cells; conditions: one partner purified

Measured: binding result

B1: mAb 3711 (antibody, V domains shown)
VH: EVQLVESGGGLVKPGRSLRLSCAASGFTFSDYYMSWIRQAPGKGLEWVSYISSSGSTIYYADSVRGRFTISRDNAKNSLYLQMNTLRAEDTAVYYCARGGWELRSLAGGYYGMDVWGQGTTVTVSS
VL: DIVMTQTPFTLSASVGDRVTITCRASQGIRNDLGWYQQKPGKAPKCLIYAASSLLSGVPSRFSGSGSGTEFTLTISSLQPEDFATYYCLQHNSYPWTFGQGTKLEIK
binds: all assays above
